Legend:
[1] = molecular target: human melanocortin 1 receptor (human) (UniProt Q01726)
[2] = molecular target: human melanocortin 3 receptor (human) (UniProt P41968)
[3] = molecular target: human melanocortin 4 receptor (human) (UniProt P32245)
[4] = molecular target: human melanocortin 5 receptor (human) (UniProt P33032)
[5] = molecular target: mouse melanocortin 1 receptor (mouse) (UniProt Q01727)
[6] = molecular target: mouse melanocortin 3 receptor (mouse) (UniProt P33033)
[7] = molecular target: mouse melanocortin 4 receptor (mouse) (UniProt P56450)
[8] = molecular target: mouse melanocortin 5 receptor (mouse) (UniProt P41149)
Chain of mouse melanocortin 5 receptor (mouse) (P41149 whole entry): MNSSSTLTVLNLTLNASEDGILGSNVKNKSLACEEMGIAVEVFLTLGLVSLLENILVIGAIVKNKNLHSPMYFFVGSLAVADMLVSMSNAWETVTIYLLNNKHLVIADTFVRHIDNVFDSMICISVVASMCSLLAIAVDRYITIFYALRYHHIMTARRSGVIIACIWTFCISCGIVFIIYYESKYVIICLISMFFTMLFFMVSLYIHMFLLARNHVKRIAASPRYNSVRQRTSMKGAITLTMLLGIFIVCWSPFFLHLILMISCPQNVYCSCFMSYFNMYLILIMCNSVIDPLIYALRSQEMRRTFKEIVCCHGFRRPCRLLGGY

Chain of human melanocortin 4 receptor (human) (P32245 whole entry): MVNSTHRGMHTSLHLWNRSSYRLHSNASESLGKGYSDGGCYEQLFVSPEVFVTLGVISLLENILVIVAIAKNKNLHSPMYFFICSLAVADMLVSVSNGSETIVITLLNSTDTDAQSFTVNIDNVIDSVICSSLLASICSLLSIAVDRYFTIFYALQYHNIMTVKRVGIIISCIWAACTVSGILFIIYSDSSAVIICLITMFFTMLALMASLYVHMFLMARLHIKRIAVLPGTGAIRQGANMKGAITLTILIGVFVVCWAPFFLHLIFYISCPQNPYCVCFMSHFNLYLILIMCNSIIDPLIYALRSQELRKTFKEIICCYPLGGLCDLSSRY
Chain of mouse melanocortin 3 receptor (mouse) (P33033 whole entry): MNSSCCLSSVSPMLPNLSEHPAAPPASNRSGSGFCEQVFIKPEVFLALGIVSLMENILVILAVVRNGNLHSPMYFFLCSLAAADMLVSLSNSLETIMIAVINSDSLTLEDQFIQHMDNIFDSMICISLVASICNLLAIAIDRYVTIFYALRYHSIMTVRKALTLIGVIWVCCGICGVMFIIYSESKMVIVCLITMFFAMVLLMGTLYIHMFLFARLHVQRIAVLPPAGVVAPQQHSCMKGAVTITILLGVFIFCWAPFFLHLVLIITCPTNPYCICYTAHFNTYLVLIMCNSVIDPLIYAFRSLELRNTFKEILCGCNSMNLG
Chain of human melanocortin 1 receptor (human) (Q01726 whole entry): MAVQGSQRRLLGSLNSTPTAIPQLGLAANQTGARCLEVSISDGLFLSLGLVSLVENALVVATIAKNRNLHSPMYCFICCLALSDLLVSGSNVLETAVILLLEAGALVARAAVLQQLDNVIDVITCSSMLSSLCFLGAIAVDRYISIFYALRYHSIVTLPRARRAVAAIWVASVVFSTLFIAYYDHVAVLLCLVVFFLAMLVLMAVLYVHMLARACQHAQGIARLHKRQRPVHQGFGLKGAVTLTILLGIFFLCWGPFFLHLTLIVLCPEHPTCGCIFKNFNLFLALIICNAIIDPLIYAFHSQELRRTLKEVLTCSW
Chain of human melanocortin 3 receptor (human) (P41968 whole entry): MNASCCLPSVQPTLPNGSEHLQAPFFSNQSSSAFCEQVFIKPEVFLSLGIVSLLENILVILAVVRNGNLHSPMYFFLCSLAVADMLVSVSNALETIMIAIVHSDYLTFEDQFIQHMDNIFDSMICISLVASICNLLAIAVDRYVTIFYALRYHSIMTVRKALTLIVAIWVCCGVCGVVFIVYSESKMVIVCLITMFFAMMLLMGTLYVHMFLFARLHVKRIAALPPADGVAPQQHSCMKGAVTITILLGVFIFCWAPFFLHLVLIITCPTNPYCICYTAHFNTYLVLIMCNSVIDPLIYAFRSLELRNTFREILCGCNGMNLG
Chain of mouse melanocortin 1 receptor (mouse) (Q01727 whole entry): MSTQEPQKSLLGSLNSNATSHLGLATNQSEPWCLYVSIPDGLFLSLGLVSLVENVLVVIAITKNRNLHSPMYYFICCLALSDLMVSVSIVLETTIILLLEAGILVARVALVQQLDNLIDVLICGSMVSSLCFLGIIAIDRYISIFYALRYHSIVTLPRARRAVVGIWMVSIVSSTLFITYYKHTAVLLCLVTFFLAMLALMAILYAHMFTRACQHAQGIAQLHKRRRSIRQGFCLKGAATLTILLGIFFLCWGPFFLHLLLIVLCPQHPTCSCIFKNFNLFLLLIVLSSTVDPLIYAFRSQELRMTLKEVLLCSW
Chain of mouse melanocortin 4 receptor (mouse) (P56450 whole entry): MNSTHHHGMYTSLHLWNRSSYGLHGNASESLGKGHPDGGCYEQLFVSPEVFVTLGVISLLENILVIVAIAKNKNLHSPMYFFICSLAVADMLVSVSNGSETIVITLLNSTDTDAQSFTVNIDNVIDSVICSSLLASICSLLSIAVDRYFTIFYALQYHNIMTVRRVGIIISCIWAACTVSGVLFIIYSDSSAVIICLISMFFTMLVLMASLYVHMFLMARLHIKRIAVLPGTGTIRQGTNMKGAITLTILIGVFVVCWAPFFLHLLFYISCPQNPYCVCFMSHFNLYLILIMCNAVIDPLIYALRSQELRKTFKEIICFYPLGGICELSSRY
Chain of human melanocortin 5 receptor (human) (P33032 whole entry): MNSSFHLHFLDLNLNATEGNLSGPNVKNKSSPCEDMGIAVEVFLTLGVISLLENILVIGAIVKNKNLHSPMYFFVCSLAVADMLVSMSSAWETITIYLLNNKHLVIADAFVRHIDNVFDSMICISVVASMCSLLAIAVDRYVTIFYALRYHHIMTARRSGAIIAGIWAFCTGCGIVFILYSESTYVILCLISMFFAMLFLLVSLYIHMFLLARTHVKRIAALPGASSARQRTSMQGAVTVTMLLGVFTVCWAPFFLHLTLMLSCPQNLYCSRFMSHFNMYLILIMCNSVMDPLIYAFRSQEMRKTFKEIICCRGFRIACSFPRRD

cAMP agonist EC50 (AlphaScreen cAMP assay, HEK293 cells expressing the receptor) [1]: 70 pM | cAMP agonist EC50 (AlphaScreen cAMP assay, HEK293 cells expressing the receptor) [2]: 300 pM | cAMP agonist EC50 (AlphaScreen cAMP assay, HEK293 cells expressing the receptor) [3]: 130 pM | cAMP agonist EC50 (AlphaScreen cAMP assay, HEK293 cells expressing the receptor) [4]: 400 pM | cAMP agonist EC50 (AlphaScreen cAMP assay, HEK293 cells expressing the receptor) [5]: 40 pM | cAMP agonist EC50 (AlphaScreen cAMP assay, HEK293 cells expressing the receptor) [6]: 330 pM | cAMP agonist EC50 (AlphaScreen cAMP assay, HEK293 cells expressing the receptor) [7]: 870 pM | cAMP agonist EC50 (AlphaScreen cAMP assay, HEK293 cells expressing the receptor) [8]: 410 pM
Substance: NDP-MSH (peptide)
